# Test results from patent US20240270846A1 (published 2024).
# B1: GLS3000 H27dF one-arm antibody (H chain CE115HA000) (antibody, human IgG1, kappa, L234A L235A, N297A, name in Kabat numbering)
# heavy: QVQLVESGGGVVQPGRSLRLSCAASGFTFSNAWMHWVRQAPGKGLEWVAQIKAKSNNYATYYAESVKGRFTISRDDSKNSLYLQMNSLKTEDTAVYYCRYVHYGAYYGVDAWGQGTTVTVSSASTKGPSVFPLAPSSKSTSGGTAALGCLVKDYFPEPVTVSWNSGALTSGVHTFPAVLQSSGLYSLSSVVTVPSSSLGTQTYICNVNHKPSNTKVDKKVEPKSCDKTHTCPPCPAPEAAGGPSVFLFPPKPKDTLMISRTPEVTCVVVDVSHEDPEVKFNWYVDGVEVHNAKTKPREEQYASTYRVVSVLTVLHQDWLNGKEYKCKVSNKALPAPIEKTISKAKGQPREPQVYTLPPSRCELTKNQVSLSCAVKGFYPSDIAVEWESNGQPENNYKTTPPVLDSDGSFFLVSKLTVDKSRWQQGNVFSCSVMHEALHNHYTQKSLSLSPDYKDDDDK
# chain: EPKSSDKTHTCPPCPAPELLGGPSVFLFPPKPKDTLMISRTPEVTCVVVDVSHEDPEVKFNWYVDGVEVHNAKTKPREEQYNSTYRVVSVLTVLHQDWLNGKEYKCKVSNKALPAPIEKTISKAKGQPREPQVCTLPPSRDELTKNQVSLWCLVKGFYPSDIAVEWESNGQPENNYKTTPPVLDSDGSFFLYSKLTVDKSRWQQGNVFSCSVMHEALHNRYTQKSLSLSP
# light: DIVMTQSPLSLPVTPGEPASISCRSSQSLVFSNRNTYLHWYQQKPGQAPRLLIYKVSNRFSGVPDRFSGSGSGTDFTLKISRVEAEDVGVYYCGQGTQVPYTFGQGTKLEIKRTVAAPSVFIFPPSDEQLKSGTASVVCLLNNFYPREAKVQWKVDNALQSGNSQESVTEQDSKDSTYSLSSTLTLSKADYEKHKVYACEVTHQGLSSPVTKSFNRGEC
# notes: one-arm antibody
# B2: GLS3000 H27dG one-arm antibody (H chain CE115HA000) (antibody, human IgG1, kappa, L234A L235A, N297A, name in Kabat numbering)
# heavy: QVQLVESGGGVVQPGRSLRLSCAASGFTFSNAWMHWVRQAPGKGLEWVAQIKAKSNNYATYYAESVKGRFTISRDDSKNSLYLQMNSLKTEDTAVYYCRYVHYGAYYGVDAWGQGTTVTVSSASTKGPSVFPLAPSSKSTSGGTAALGCLVKDYFPEPVTVSWNSGALTSGVHTFPAVLQSSGLYSLSSVVTVPSSSLGTQTYICNVNHKPSNTKVDKKVEPKSCDKTHTCPPCPAPEAAGGPSVFLFPPKPKDTLMISRTPEVTCVVVDVSHEDPEVKFNWYVDGVEVHNAKTKPREEQYASTYRVVSVLTVLHQDWLNGKEYKCKVSNKALPAPIEKTISKAKGQPREPQVYTLPPSRCELTKNQVSLSCAVKGFYPSDIAVEWESNGQPENNYKTTPPVLDSDGSFFLVSKLTVDKSRWQQGNVFSCSVMHEALHNHYTQKSLSLSPDYKDDDDK
# chain: EPKSSDKTHTCPPCPAPELLGGPSVFLFPPKPKDTLMISRTPEVTCVVVDVSHEDPEVKFNWYVDGVEVHNAKTKPREEQYNSTYRVVSVLTVLHQDWLNGKEYKCKVSNKALPAPIEKTISKAKGQPREPQVCTLPPSRDELTKNQVSLWCLVKGFYPSDIAVEWESNGQPENNYKTTPPVLDSDGSFFLYSKLTVDKSRWQQGNVFSCSVMHEALHNRYTQKSLSLSP
# light: DIVMTQSPLSLPVTPGEPASISCRSSQSLVGSNRNTYLHWYQQKPGQAPRLLIYKVSNRFSGVPDRFSGSGSGTDFTLKISRVEAEDVGVYYCGQGTQVPYTFGQGTKLEIKRTVAAPSVFIFPPSDEQLKSGTASVVCLLNNFYPREAKVQWKVDNALQSGNSQESVTEQDSKDSTYSLSSTLTLSKADYEKHKVYACEVTHQGLSSPVTKSFNRGEC
# notes: one-arm antibody
# B3: GLS3000 H27dI one-arm antibody (H chain CE115HA000) (antibody, human IgG1, kappa, L234A L235A, N297A, name in Kabat numbering)
# heavy: QVQLVESGGGVVQPGRSLRLSCAASGFTFSNAWMHWVRQAPGKGLEWVAQIKAKSNNYATYYAESVKGRFTISRDDSKNSLYLQMNSLKTEDTAVYYCRYVHYGAYYGVDAWGQGTTVTVSSASTKGPSVFPLAPSSKSTSGGTAALGCLVKDYFPEPVTVSWNSGALTSGVHTFPAVLQSSGLYSLSSVVTVPSSSLGTQTYICNVNHKPSNTKVDKKVEPKSCDKTHTCPPCPAPEAAGGPSVFLFPPKPKDTLMISRTPEVTCVVVDVSHEDPEVKFNWYVDGVEVHNAKTKPREEQYASTYRVVSVLTVLHQDWLNGKEYKCKVSNKALPAPIEKTISKAKGQPREPQVYTLPPSRCELTKNQVSLSCAVKGFYPSDIAVEWESNGQPENNYKTTPPVLDSDGSFFLVSKLTVDKSRWQQGNVFSCSVMHEALHNHYTQKSLSLSPDYKDDDDK
# chain: EPKSSDKTHTCPPCPAPELLGGPSVFLFPPKPKDTLMISRTPEVTCVVVDVSHEDPEVKFNWYVDGVEVHNAKTKPREEQYNSTYRVVSVLTVLHQDWLNGKEYKCKVSNKALPAPIEKTISKAKGQPREPQVCTLPPSRDELTKNQVSLWCLVKGFYPSDIAVEWESNGQPENNYKTTPPVLDSDGSFFLYSKLTVDKSRWQQGNVFSCSVMHEALHNRYTQKSLSLSP
# light: DIVMTQSPLSLPVTPGEPASISCRSSQSLVISNRNTYLHWYQQKPGQAPRLLIYKVSNRFSGVPDRFSGSGSGTDFTLKISRVEAEDVGVYYCGQGTQVPYTFGQGTKLEIKRTVAAPSVFIFPPSDEQLKSGTASVVCLLNNFYPREAKVQWKVDNALQSGNSQESVTEQDSKDSTYSLSSTLTLSKADYEKHKVYACEVTHQGLSSPVTKSFNRGEC
# notes: one-arm antibody
# B4: GLS3000 H27dK one-arm antibody (H chain CE115HA000) (antibody, human IgG1, kappa, L234A L235A, N297A, name in Kabat numbering)
# heavy: QVQLVESGGGVVQPGRSLRLSCAASGFTFSNAWMHWVRQAPGKGLEWVAQIKAKSNNYATYYAESVKGRFTISRDDSKNSLYLQMNSLKTEDTAVYYCRYVHYGAYYGVDAWGQGTTVTVSSASTKGPSVFPLAPSSKSTSGGTAALGCLVKDYFPEPVTVSWNSGALTSGVHTFPAVLQSSGLYSLSSVVTVPSSSLGTQTYICNVNHKPSNTKVDKKVEPKSCDKTHTCPPCPAPEAAGGPSVFLFPPKPKDTLMISRTPEVTCVVVDVSHEDPEVKFNWYVDGVEVHNAKTKPREEQYASTYRVVSVLTVLHQDWLNGKEYKCKVSNKALPAPIEKTISKAKGQPREPQVYTLPPSRCELTKNQVSLSCAVKGFYPSDIAVEWESNGQPENNYKTTPPVLDSDGSFFLVSKLTVDKSRWQQGNVFSCSVMHEALHNHYTQKSLSLSPDYKDDDDK
# chain: EPKSSDKTHTCPPCPAPELLGGPSVFLFPPKPKDTLMISRTPEVTCVVVDVSHEDPEVKFNWYVDGVEVHNAKTKPREEQYNSTYRVVSVLTVLHQDWLNGKEYKCKVSNKALPAPIEKTISKAKGQPREPQVCTLPPSRDELTKNQVSLWCLVKGFYPSDIAVEWESNGQPENNYKTTPPVLDSDGSFFLYSKLTVDKSRWQQGNVFSCSVMHEALHNRYTQKSLSLSP
# light: DIVMTQSPLSLPVTPGEPASISCRSSQSLVKSNRNTYLHWYQQKPGQAPRLLIYKVSNRFSGVPDRFSGSGSGTDFTLKISRVEAEDVGVYYCGQGTQVPYTFGQGTKLEIKRTVAAPSVFIFPPSDEQLKSGTASVVCLLNNFYPREAKVQWKVDNALQSGNSQESVTEQDSKDSTYSLSSTLTLSKADYEKHKVYACEVTHQGLSSPVTKSFNRGEC
# notes: one-arm antibody
# B5: GLS3000 H27dL one-arm antibody (H chain CE115HA000) (antibody, human IgG1, kappa, L234A L235A, N297A, name in Kabat numbering)
# heavy: QVQLVESGGGVVQPGRSLRLSCAASGFTFSNAWMHWVRQAPGKGLEWVAQIKAKSNNYATYYAESVKGRFTISRDDSKNSLYLQMNSLKTEDTAVYYCRYVHYGAYYGVDAWGQGTTVTVSSASTKGPSVFPLAPSSKSTSGGTAALGCLVKDYFPEPVTVSWNSGALTSGVHTFPAVLQSSGLYSLSSVVTVPSSSLGTQTYICNVNHKPSNTKVDKKVEPKSCDKTHTCPPCPAPEAAGGPSVFLFPPKPKDTLMISRTPEVTCVVVDVSHEDPEVKFNWYVDGVEVHNAKTKPREEQYASTYRVVSVLTVLHQDWLNGKEYKCKVSNKALPAPIEKTISKAKGQPREPQVYTLPPSRCELTKNQVSLSCAVKGFYPSDIAVEWESNGQPENNYKTTPPVLDSDGSFFLVSKLTVDKSRWQQGNVFSCSVMHEALHNHYTQKSLSLSPDYKDDDDK
# chain: EPKSSDKTHTCPPCPAPELLGGPSVFLFPPKPKDTLMISRTPEVTCVVVDVSHEDPEVKFNWYVDGVEVHNAKTKPREEQYNSTYRVVSVLTVLHQDWLNGKEYKCKVSNKALPAPIEKTISKAKGQPREPQVCTLPPSRDELTKNQVSLWCLVKGFYPSDIAVEWESNGQPENNYKTTPPVLDSDGSFFLYSKLTVDKSRWQQGNVFSCSVMHEALHNRYTQKSLSLSP
# light: DIVMTQSPLSLPVTPGEPASISCRSSQSLVLSNRNTYLHWYQQKPGQAPRLLIYKVSNRFSGVPDRFSGSGSGTDFTLKISRVEAEDVGVYYCGQGTQVPYTFGQGTKLEIKRTVAAPSVFIFPPSDEQLKSGTASVVCLLNNFYPREAKVQWKVDNALQSGNSQESVTEQDSKDSTYSLSSTLTLSKADYEKHKVYACEVTHQGLSSPVTKSFNRGEC
# notes: one-arm antibody
# B6: GLS3000 H27dM one-arm antibody (H chain CE115HA000) (antibody, human IgG1, kappa, L234A L235A, N297A, name in Kabat numbering)
# heavy: QVQLVESGGGVVQPGRSLRLSCAASGFTFSNAWMHWVRQAPGKGLEWVAQIKAKSNNYATYYAESVKGRFTISRDDSKNSLYLQMNSLKTEDTAVYYCRYVHYGAYYGVDAWGQGTTVTVSSASTKGPSVFPLAPSSKSTSGGTAALGCLVKDYFPEPVTVSWNSGALTSGVHTFPAVLQSSGLYSLSSVVTVPSSSLGTQTYICNVNHKPSNTKVDKKVEPKSCDKTHTCPPCPAPEAAGGPSVFLFPPKPKDTLMISRTPEVTCVVVDVSHEDPEVKFNWYVDGVEVHNAKTKPREEQYASTYRVVSVLTVLHQDWLNGKEYKCKVSNKALPAPIEKTISKAKGQPREPQVYTLPPSRCELTKNQVSLSCAVKGFYPSDIAVEWESNGQPENNYKTTPPVLDSDGSFFLVSKLTVDKSRWQQGNVFSCSVMHEALHNHYTQKSLSLSPDYKDDDDK
# chain: EPKSSDKTHTCPPCPAPELLGGPSVFLFPPKPKDTLMISRTPEVTCVVVDVSHEDPEVKFNWYVDGVEVHNAKTKPREEQYNSTYRVVSVLTVLHQDWLNGKEYKCKVSNKALPAPIEKTISKAKGQPREPQVCTLPPSRDELTKNQVSLWCLVKGFYPSDIAVEWESNGQPENNYKTTPPVLDSDGSFFLYSKLTVDKSRWQQGNVFSCSVMHEALHNRYTQKSLSLSP
# light: DIVMTQSPLSLPVTPGEPASISCRSSQSLVMSNRNTYLHWYQQKPGQAPRLLIYKVSNRFSGVPDRFSGSGSGTDFTLKISRVEAEDVGVYYCGQGTQVPYTFGQGTKLEIKRTVAAPSVFIFPPSDEQLKSGTASVVCLLNNFYPREAKVQWKVDNALQSGNSQESVTEQDSKDSTYSLSSTLTLSKADYEKHKVYACEVTHQGLSSPVTKSFNRGEC
# notes: one-arm antibody
# Target: T1, CD3 epsilon homodimer protein (UniProt P07766 23-126)
# T1 construct: also called CD3 (CD3 epsilon)
# Assay: SPR, CD3e homodimer on chip;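 note: surface plasmon resonance at 25 degrees C, antibodies flowed as analyte over CD3 epsilon homodimer amine-coupled to a CM4 chip, running buffer HBS-EP+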
# T1 sequence (P07766 23-126): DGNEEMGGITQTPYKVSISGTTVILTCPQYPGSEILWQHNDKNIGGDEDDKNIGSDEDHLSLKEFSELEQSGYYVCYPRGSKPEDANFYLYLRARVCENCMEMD
row,Binder,ratio of amounts bound (altered form / unaltered GLS3000 antibody)
1,B1,0.63
2,B2,0.3
3,B3,0.26
4,B4,0.29
5,B5,0.3
6,B6,0.3
